From article PMC10397247

Legend:
Experiment in all cases: two-hybrid library CCmax;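 also: natural log of median RNA to DNA barcode read ratio; higher means stronger binding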
[1] = target: T1, 4H3410-AA; details: mean of both orientations
T1 chain: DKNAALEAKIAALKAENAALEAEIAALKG

[2] = target: T2, 4H174-AA
T2 chain: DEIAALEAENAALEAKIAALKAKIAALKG

[3] = target: T3, 4H1877-AA; details: mean of both orientations
T3 chain: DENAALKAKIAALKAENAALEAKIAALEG

[4] = target: T4, 4H3381-AA; details: mean of both orientations
T4 chain: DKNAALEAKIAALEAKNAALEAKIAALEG

[5] = target: T5, 4H891-AA; details: mean of both orientations
T5 chain: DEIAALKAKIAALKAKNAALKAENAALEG

[6] = target: T6, 4H2649-AA; details: mean of both orientations
T6 chain: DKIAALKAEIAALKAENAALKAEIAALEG

[7] = target: T7, 4H485-AA; details: mean of both orientations
T7 chain: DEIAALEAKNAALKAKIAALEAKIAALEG

[8] = target: T8, 4H3865-AA; details: mean of both orientations
T8 chain: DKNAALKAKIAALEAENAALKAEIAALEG

[9] = target: T9, 4H3590-AA; details: mean of both orientations
T9 chain: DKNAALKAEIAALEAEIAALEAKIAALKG

[10] = target: T10, 4H536-AA; details: mean of both orientations
T10 chain: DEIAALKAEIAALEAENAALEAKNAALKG

[11] = target: T11, 4H3697-AA; details: mean of both orientations
T11 chain: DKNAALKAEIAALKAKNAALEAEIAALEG

[12] = target: T12, 4H3165-AA; details: mean of both orientations
T12 chain: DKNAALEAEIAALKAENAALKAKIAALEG

[13] = target: T13, 4H1864-AA; details: mean of both orientations
T13 chain: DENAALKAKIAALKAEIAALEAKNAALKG

[14] = target: T14, 4H3016-AA; details: mean of both orientations
T14 chain: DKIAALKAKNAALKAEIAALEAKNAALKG

[15] = target: T15, 4H850-AA; details: mean of both orientations
T15 chain: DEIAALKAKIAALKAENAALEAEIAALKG

[16] = target: T16, 4H3130-AA
T16 chain: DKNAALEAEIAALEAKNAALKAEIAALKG

[17] = target: T17, 4H310-AA; details: mean of both orientations
T17 chain: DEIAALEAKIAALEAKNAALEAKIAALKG

[18] = target: T18, 4H570-AA; details: mean of both orientations
T18 chain: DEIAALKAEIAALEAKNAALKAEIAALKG

[19] = target: T19, 4H3753-AA; details: mean of both orientations
T19 chain: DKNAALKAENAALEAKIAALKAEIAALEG

[20] = target: T20, 4H797-AA; details: mean of both orientations
T20 chain: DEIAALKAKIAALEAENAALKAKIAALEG

[21] = target: T21, 4H2162-AA; details: mean of both orientations
T21 chain: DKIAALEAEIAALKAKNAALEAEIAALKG

[22] = target: T22, 4H629-AA; details: mean of both orientations
T22 chain: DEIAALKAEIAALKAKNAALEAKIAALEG

[23] = target: T23, 4H745-AA; details: mean of both orientations
T23 chain: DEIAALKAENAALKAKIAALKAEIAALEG

[24] = target: T24, 4H710-AA; details: mean of both orientations
T24 chain: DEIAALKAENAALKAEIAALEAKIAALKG

[25] = target: T25, 4H3395-AA
T25 chain: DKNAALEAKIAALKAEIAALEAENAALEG

[26] = target: T26, 4H2274-AA; details: mean of both orientations
T26 chain: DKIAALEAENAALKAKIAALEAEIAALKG

[27] = target: T27, 4H458-AA; details: mean of both orientations
T27 chain: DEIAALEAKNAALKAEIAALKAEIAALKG

[28] = target: T28, 4H2330-AA; details: mean of both orientations
T28 chain: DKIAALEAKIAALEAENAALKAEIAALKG

[29] = target: T29, 4H2389-AA; details: mean of both orientations
T29 chain: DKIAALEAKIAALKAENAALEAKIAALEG

[30] = target: T30, 4H2473-AA; details: mean of both orientations
T30 chain: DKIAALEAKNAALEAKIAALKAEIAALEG

[31] = target: T31, 4H94-AA; details: mean of both orientations
T31 chain: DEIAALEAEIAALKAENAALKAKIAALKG

[32] = target: T32, 4H3120-AA; details: mean of both orientations
T32 chain: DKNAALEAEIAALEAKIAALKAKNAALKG

[33] = target: T33, 4H2698-AA; details: mean of both orientations
T33 chain: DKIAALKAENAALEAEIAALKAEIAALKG

[34] = target: T34, 4H909-AA; details: mean of both orientations
T34 chain: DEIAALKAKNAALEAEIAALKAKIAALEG

[35] = target: T35, 4H1842-AA; details: mean of both orientations
T35 chain: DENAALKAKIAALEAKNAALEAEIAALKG

[36] = target: T36, 4H2109-AA; details: mean of both orientations
T36 chain: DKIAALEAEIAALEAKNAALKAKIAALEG

[37] = target: T37, 4H2865-AA; details: mean of both orientations
T37 chain: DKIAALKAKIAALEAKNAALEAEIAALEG

[38] = target: T38, 4H2438-AA; details: mean of both orientations
T38 chain: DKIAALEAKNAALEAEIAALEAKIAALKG

[39] = target: T39, 4H930-AA; details: mean of both orientations
T39 chain: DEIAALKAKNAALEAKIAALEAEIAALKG

[40] = target: T40, 4H2725-AA; details: mean of both orientations
T40 chain: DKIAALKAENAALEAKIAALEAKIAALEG

[41] = target: T41, 4H3009-AA; details: mean of both orientations
T41 chain: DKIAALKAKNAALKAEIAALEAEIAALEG

[42] = target: T42, 4H2253-AA; details: mean of both orientations
T42 chain: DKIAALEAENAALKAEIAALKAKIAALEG

B1: 4H174-AA (peptide)
chain: DEIAALEAENAALEAKIAALKAKIAALKG
interaction score [1]: -0.289 | interaction score [2]: 1.79 | interaction score [3]: -0.507 | interaction score [4]: -1.38 | interaction score [5]: -0.401 | interaction score [6]: -0.748 | interaction score [7]: 1.94 | interaction score [8]: 0.259 | interaction score [9]: 2.2 | interaction score [10]: -0.546 | interaction score [11]: -0.364 | interaction score [12]: -1.24 | interaction score [13]: -0.256 | interaction score [14]: 1.81 | interaction score [15]: 1.05 | interaction score [16]: 1.99 | interaction score [17]: 1.6 | interaction score [18]: 1.49 | interaction score [19]: 1.06 | interaction score [20]: -1.35 | interaction score [21]: -0.944 | interaction score [22]: -0.697 | interaction score [23]: 1.69 | interaction score [24]: 2.23 | interaction score [25]: 0.219 | interaction score [26]: 1.3 | interaction score [27]: 0.887 | interaction score [28]: 0.552 | interaction score [29]: -0.219 | interaction score [30]: 1.69 | interaction score [31]: 1.29 | interaction score [32]: -0.846 | interaction score [33]: 2.04 | interaction score [34]: 0.929 | interaction score [35]: -0.689 | interaction score [36]: 2.01 | interaction score [37]: 0.805 | interaction score [38]: 2.25 | interaction score [39]: 1.44 | interaction score [40]: 1.47 | interaction score [41]: 2.3 | interaction score [42]: 0.429
